In patent publication US11446371B2, “Targeting of ligand binding sites in ClfA” (THE TEXAS A&M UNIVERSITY SYSTEM, priority 2015, dated 2022):
Residue numbers refer to the chain shown, from its start. Entries after “also recorded” stand apart in the source; their conditions may differ. Where a SMILES comes first, the peptide text is derived from it.

B1: ClfAPWY (protein)
chain: VAADAPAAGTDITNQLTNVTVGIDSGTTVYPHQAGYVKLNYGFSVPNSAVKGDTFKITVPKELNLNGVTSTAKVPPIMAGDQVLANGVIDSDGNVIYTFTDYVNTKDDVKATLTMPAYIDPENVKKTGNVTLATGIGSTTANKTVLVDYEKYGKFYNLSIKGTIDQIDKTNNTYRQTIYVNPSGDNVIAPVLTGNLKPNTDSNALIDQQNTSIKVYKVDNAADLSESYFVNPENFEDVTNSVNITFANPNQYKVEFNTPDDQITTPYIVVVNGHIDPNSKGDLALRSTLYGANSNIIARSMSWDNEVAFNNGSGSGDGIDKPVVPEQPDEPGEIEPIPE
B2: ClfA221-559: recombinant ClfA residues 221-559 (N2N3 subdomains) from S. aureus strain Newman (protein)
chain: B1 chain with A247P, A292Y, A298W
B3: ClfA370-559: recombinant form of the ClfA N3 subdomain (protein)
chain: EKYGKFYNLSIKGTIDQIDKTNNTYRQTIYVNPSGDNVIAPVLTGNLKPNTDSNALIDQQNTSIKVYKVDNAADLSESYFVNPENFEDVTNSVNITFPNPNQYKVEFNTPDDQITTPYIVVVNGHIDPNSKGDLALRSTLYGYNSNIIWRSMSWDNEVAFNNGSGSGDGIDKPVVPEQPDEPGEIEPIPE

How the values were obtained:
ClfACC = target: T1, ClfACC (Staphylococcus aureus, UniProt Q53653, D327C/K541C); test: ITC, synthetic C-terminal γ-chain peptide titrated into ClfACC; assay type: binding, S. aureus; conditions: peptide titrated into cell containing ClfACC
T1 construct: made in house; host or cells: E. coli Topp3
T1 sequence (Q53653 229-545 D327C/K541C limits assumed): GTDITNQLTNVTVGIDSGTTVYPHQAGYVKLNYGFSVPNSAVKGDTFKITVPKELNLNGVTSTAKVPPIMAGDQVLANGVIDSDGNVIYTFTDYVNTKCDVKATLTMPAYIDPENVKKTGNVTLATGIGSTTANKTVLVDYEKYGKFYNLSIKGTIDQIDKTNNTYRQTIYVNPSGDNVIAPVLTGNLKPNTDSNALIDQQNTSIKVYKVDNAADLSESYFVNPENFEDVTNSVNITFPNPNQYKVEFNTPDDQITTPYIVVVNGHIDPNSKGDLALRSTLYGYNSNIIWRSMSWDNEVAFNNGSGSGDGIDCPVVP

Fg binding to ClfA = Fg binding to ClfA (Staphylococcus aureus, UniProt Q53653); test: Reduction of Fg binding to ClfA by synthetic Fg γ-peptide; design: species or system S. aureus; conditions: even at high concentrations
immobilized Tefibazumab = test: SPR binding of ClfA221-559 variants to immobilized Tefibazumab; conditions: 0.1 μM ClfA221-559 variant
Text: Surface Plasmon Resonance.
FIG. 3A is a ribbon diagram of ClfA-N3 domain showing the positions of PWY. The Fg γ-peptide is shown as a ribbon to show the location of the Fg γ-peptide binding site. […] The amino acid substitutions in the variant proteins were made at the mAb binding site. FIG. 3C is a graph of ClfAPWY and Fg-γ P16 peptide interaction measured by ITC.

immobilized human Fg [1] = target: T2, immobilized human Fg (Homo sapiens, UniProt P02671+P02675+P02679); test: SPR binding of ClfA proteins to immobilized Fg; conditions: 0.1 μM ClfA221-559 variant
T2 construct: immobilized intact Fg
T2 sequence (P02671 20-644 isoform P02671-2 limits assumed): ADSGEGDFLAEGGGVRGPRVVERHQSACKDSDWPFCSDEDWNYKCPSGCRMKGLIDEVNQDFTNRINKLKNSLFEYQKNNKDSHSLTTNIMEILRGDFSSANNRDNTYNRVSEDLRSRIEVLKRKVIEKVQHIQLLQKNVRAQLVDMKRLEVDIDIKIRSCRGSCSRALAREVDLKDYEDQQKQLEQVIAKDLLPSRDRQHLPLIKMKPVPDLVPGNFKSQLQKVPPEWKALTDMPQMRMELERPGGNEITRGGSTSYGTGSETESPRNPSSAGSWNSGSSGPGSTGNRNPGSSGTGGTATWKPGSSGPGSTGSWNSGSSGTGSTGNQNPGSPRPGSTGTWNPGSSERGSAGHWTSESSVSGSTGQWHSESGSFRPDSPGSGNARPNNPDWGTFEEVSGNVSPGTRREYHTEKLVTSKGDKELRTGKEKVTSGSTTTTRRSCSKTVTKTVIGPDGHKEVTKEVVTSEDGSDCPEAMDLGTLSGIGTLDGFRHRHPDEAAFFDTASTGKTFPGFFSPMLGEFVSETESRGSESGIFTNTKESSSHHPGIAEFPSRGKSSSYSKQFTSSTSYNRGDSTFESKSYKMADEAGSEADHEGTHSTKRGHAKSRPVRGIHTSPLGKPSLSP
T2 sequence (P02675 31-491): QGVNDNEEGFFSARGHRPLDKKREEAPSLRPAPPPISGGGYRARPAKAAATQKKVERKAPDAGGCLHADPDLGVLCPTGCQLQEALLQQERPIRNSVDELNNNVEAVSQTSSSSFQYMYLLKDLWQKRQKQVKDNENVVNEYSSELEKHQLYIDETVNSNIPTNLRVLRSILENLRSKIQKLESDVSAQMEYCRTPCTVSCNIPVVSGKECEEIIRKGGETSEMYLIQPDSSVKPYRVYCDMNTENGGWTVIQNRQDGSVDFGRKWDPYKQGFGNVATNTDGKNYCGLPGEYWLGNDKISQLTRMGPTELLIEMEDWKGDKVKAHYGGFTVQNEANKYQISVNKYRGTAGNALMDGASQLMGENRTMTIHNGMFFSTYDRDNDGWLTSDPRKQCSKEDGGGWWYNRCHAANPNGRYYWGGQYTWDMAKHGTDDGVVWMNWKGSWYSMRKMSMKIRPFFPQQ
T2 sequence (P02679 27-437 isoform P02679-2 limits assumed): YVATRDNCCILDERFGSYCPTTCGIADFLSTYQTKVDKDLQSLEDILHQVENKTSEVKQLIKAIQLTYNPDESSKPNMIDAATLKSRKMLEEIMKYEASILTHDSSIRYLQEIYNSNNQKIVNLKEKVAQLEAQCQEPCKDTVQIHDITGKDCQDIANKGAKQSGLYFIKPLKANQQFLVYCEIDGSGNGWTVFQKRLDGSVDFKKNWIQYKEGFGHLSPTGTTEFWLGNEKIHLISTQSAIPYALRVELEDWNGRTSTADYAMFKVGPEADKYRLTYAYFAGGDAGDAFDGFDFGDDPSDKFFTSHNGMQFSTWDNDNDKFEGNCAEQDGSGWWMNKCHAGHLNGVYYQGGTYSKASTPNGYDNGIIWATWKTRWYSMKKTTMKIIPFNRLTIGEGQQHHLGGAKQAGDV
Method: (§1) Surface Plasmon Resonance. Surface plasmon resonance-based binding experiments were performed at 25° C. on a Biacore 3000 (GE Healthcare/Biacore, Uppsala, Sweden). Phosphate buffered saline (PBS-T: 8.06 mM Na2HPO4, 1.94 mM KH2PO4, 2.7 mM KCl and 137 mM NaCl, pH 7.4, and 0.005% Tween-20) was used as running buffer for immobilization and binding experiments. Flow rate of 5 μl/min was used during immobilization and a higher rate 30 or 50 μl/min for binding experiments. The fibrinogen (Fg) surface was prepared on a CM5 sensor chip via standard amine-coupling chemistry. A Fg solution (10 μl of 20 μg/ml in sodium citrate, pH5.5) was injected to an activated (4 min) flow cell. After deactivation, about 7000 resonance units (RU) of Fg were immobilized. A reference surface was prepared with activation and deactivation steps but no protein coupled. […] For GST fusion protein capturing, approximately 11000 RU of goat anti-GST antibody (GE Healthcare/Biacore) were immobilized simultaneously on two flow cells on a CM5 sensor chip. GST-tagged Fg γ-peptide (20 μg/ml in PBS-T) was captured by the antibody and created a ligand surface (about 700 RU). The other flow cell with GST captured (about 900 RU) served as a reference surface. […] All SPR responses were baseline corrected by subtracting response generated from reference surface.
(§2) Since most of the known and putative Fg interactive sites in ClfA are located within the N3 subdomain we examined the interactions of a recombinant form of N3 (ClfA370-559) to the different forms of immobilized Fg.

immobilized human Fg [2] = test: SPR binding of ClfA proteins to immobilized Fg; conditions: immobilized Fg, Fg D-fragment, GST-γ-peptide
Method: as §1, §2

| Molecule | binding to immobilized Tefibazumab (immobilized Tefibazumab) | binding to immobilized human Fg (immobilized human Fg [1]) | fold difference in KD between binding to γ-peptide and to Fg or Fg D-fragment (immobilized human Fg [2]) | other results |
| --- | --- | --- | --- | --- |
| CC(C)C[C@H](NC(=O)[C@H](Cc1c[nH]cn1)NC(=O)[C@H](Cc1c[nH]cn1)NC(=O)[C@H](CCC(N)=O)NC(=O)[C@H](CCC(N)=O)NC(=O)CNC(=O)[C@H](CCC(=O)O)NC(=O)CN)C(=O)NCC(=O)NCC(=O)N[C@@H](C)C(=O)N[C@@H](CCCCN)C(=O)N[C@@H](CCC(N)=O)C(=O)N[C@@H](C)C(=O)NCC(=O)N[C@@H](CC(=O)O)C(=O)N[C@H](C(=O)O)C(C)C [Fg γ-peptide] (H-GEGQQHHLGGAKQAGDV-OH; N-terminus and C-terminus assumed) | – | – | – | Kd (ClfACC): 9 µM; maximum reduction of Fg binding to ClfA (Fg binding to ClfA): ~50% |
| Y512A | slightly reduced binding | reduced binding | – | – |
| B1 | almost completely abolished; also recorded: completely lost its ability to bind | minimal binding | – | – |
| B2 | – | – | 4-7 fold | – |
| B3 | – | – | about 10 fold | – |
